Source: article PMC7556464, “4CMenB vaccine induces elite cross-protective human antibodies that compete with human factor H for binding to meningococcal fHbp” (PLoS Pathogens, 2020)
Substitutions are numbered along the chain they refer to.

T1: factor H binding protein (fHbp) variant 1.1, recombinant (Neisseria meningitidis MC58, fHbp v1.1)
T1 construct: also called fHbp v1.1; fHbp v1; source: E. coli BL21(DE3), purified (Ni-NTA, SEC when necessary); not shown: His6, C-terminal, kept
T1 chain: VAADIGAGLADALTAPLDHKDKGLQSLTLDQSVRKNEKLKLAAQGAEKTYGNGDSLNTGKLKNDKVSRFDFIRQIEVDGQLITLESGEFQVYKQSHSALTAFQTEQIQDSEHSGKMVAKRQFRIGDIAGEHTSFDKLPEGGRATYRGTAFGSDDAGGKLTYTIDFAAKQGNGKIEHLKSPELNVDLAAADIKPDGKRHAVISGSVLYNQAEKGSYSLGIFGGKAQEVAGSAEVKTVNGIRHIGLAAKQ

B1: human anti-fHbp mAb 3B7 (antibody, V domains shown)
VH: EVQLVQSGAEVKKPGSSVKVSCKASGDTFSNYPISWVRQAPGQGLEWMGGIIPIFGTANYAQKFQGRVTITADESTSTPYMELSSLRSEDTAVYYCARGDTAMAPFDYWGQGTLVTVSS
VL: SYVLTQPPSVSVAPGKTARITCGGNSIGSKSVHWYQQKPGQAPVLVIYYDSDRPSGVPERISGSNSGNTATLTISRVEAGDEADYYCQVWDSSSDSWVFGGGTKLTVL
notes: source: Expi293, transient transfection, purified (protein G Sepharose)
B2: human anti-fHbp mAb 4F9 (antibody, V domains shown)
VH: QVQLVQSGGGLVKPGGSLRLSCAASGFPFSSYYMSWIRQAPGKGLEWVSDINNSGNVKEYADFVKGRLTISRDNVKNSMYLHMNSLRVEDTAVYYCARNRGRFDVWGQGTLVTVSA
VL: EIVMTQSPGTLSLSPGETATLSCRASQMISSPFLAWYQQRRGQAPRLLIYGASTRATDTPDRFRGSGSGTDFILTISRLEPEDFAVYYCQHYDDSPFTFGQGTKLEIK
notes: IgG1; source: Expi293, transient transfection, purified (protein G Sepharose)
B3: human anti-fHbp mAb 3G7 (antibody, V domains shown)
VH: B2 VH with Q1E, V5L
VL: B2 VL with M4L, H91Y
notes: as for B2
B4: human anti-fHbp mAb 4B3 (IgG1) (antibody, V domains shown)
VH: B2 VH
VL: B2 VL with H91Y
notes: as for B2
B5: human anti-fHbp mAb 1E10 (antibody, V domains shown)
VH: QVQLVESGGDLVKPGGSLRLSCVASGFTFSSYTMNWVRQAPGKGLEWVSSITSSSSFTYYADSVKGRFIISRDNAKNSLSLQMNNLRVEDTATYYCARRKDSSDYDWYYYYGMDVWGLGTTVTVSS
VL: QSVVTQPPSVSAAPGQKVTISCSGSSSNIGDNYMSWYQQIPGTAPKLLIFDNDQRPSGIPDRFSASKSGTSATLDITGFQTGDEADYYCGTWDSGLSAPVFGGGTKLTVL
notes: as for B2
B6: human anti-fHbp mAb 2G1 (antibody, V domains shown)
VH: B5 VH
VL: B5 VL with V4L
notes: as for B2
B7: human anti-fHbp mAb 1D1 (antibody, V domains shown)
VH: QVQLVGSGGGLVKPGGSLRLSCAASGFTFSSYTMNWVRQAPGKGLEWVSSISSSSGYIYYADSLKGRFTISRDDAKNSLFLQMNSLRAEDTAVYFCARDKVLPAPPGFYGLDVWGPGTTVTVSS
VL: QSVVTQPPSVSAAPGQKVTISCSGSSSNIEDNFVSWYQQLPGTAPKLLIYDNNQRPSGIPDRFSGSKSGTSATLGITGLQTGDEADYYCATWDNSLSARVFGGGTKLTVL
notes: as for B2
B8: human anti-fHbp mAb 3F1 (antibody, V domains shown)
VH: B7 VH with Q1E, Q3H, G6E, D74N
VL: B7 VL
notes: as for B2
B9: human anti-fHbp mAb 2C8 (antibody, V domains shown)
VH: QVQLVQSGAEVKKPGSSVKVSCKASGGTVINYPISWVRQVPGQGLEWMGRLVPLFGTPNYGQKFQGRITITADKSTSAAYMELIGLKSEDTAVYYCARGDTAMAPFDYWGHGTLVTVSS
VL: QLVLTQPPSVSVAPGKTATITCGGNNVGGKTVHWYQQKPGQAPVLVMSYDSDRPSGIPERFSGSNSGNTATLTISRVEAEDEADYYCQVWHGNDDHWVFGGGTKLTVL
notes: as for B2
B10: human anti-fHbp mAb 4B10 (antibody, V domains shown)
VH: EVQLVESGGGLVKPGGSLRLSCAASGFAFSTYSLHWVRQAPGKGLEWVSAITSSGSFLYYADSLKGRFTVSRDNAKNSLFLQMNSLRAGDTAVYYCARALQVEDGFPMFSGLDVWGQGTTVTVSS
VL: QTVVTQPPSVSEAPRQRVAISCSGSSSNIGDNSVSWYQQLPGKAPKLLIYDDDLLPSGVSDRFSASKSGTSASLAISGLQSEDEAEYYCAAWDDSLKGVVFGGGTKLTVL
notes: as for B2
B11: human anti-fHbp mAb 5F12 (antibody, V domains shown)
VH: EVQLVESGGDLVKPGGSLRLSCAASGFTFSNYTMNWVRQAPGKGLEWVSSITSSSSFKYYADSVKGRFTISRDNAKNSVFLQMNSLRAEDTAIYYCARRIDSSDQDWFYYYGMDVWGLGTTVTVSS
VL: QSVLTQPPSVSAAPGQRVTISCSGSSSNIGDNYISWYQQLPGTAPKLLIYDNDQRPSGTPDRFSASKSGTSATLGVTGLQTGDEADYYCGTWDSSLNAPVFGSGTKVTVL
notes: as for B2
B12: human anti-fHbp mAb 5C6 (antibody, V domains shown)
VH: EVQLLESGGGLVQPGGSLRLSCAASGFTFSSYAMSWVRQTPGKGLEWVSAISGSGGSTYYADSVQGRFTISRDNSKNTLYLQINSLRAEDTAVYYCAKDPGFVLSSGWYYFDYWGQGTLVTVSS
VL: not shown
notes: as for B2

How the values were obtained:
[1] = target: T2, factor H binding protein (fHbp) variant 3.28, recombinant (Neisseria meningitidis M1239, fHbp v3.28, UniProt Q19KF7, strain); test: SPR; conditions: both partners purified
T2 construct: also called fHbp v3.28; fHbp v3; source: E. coli BL21(DE3), purified (Ni-NTA, SEC when necessary)

[2] = target: T3, factor H binding protein (fHbp) variant 2.16, recombinant (Neisseria meningitidis 961-5945, UniProt Q6VS19, strain); test: SPR; conditions: both partners purified
T3 construct: also called fHbp v2.16; fHbp v2; source: E. coli BL21(DE3), purified (Ni-NTA, SEC when necessary)

[3] = target: T1, factor H binding protein (fHbp) variant …; test: SPR; conditions: both partners purified
[4] = target: T4, native fHbp v2.16 on live N. meningitidis strain UK104 (M08-240104) (Neisseria meningitidis, UniProt Q6VS19); test: flow cytometry on cells; conditions: one partner purified
T4 construct: source: endogenous, on live N. meningitidis M08-240104 (UK104)

[5] = target: T1, factor H binding protein (fHbp) variant …; test: BLI; Octet 384 Red, 30 C; mAb 4B3 captured on Anti-Human Fc biosensors, wild type and mutant fHbp in solution, 150 nM to 1 nM, in 1 x PBS, 1% (w/v) BSA; triplicate; conditions: both partners purified
[6] = target: T4, native fHbp v2.16 on live N. …; test: flow cytometry on cells; live meningococci (MC58, UK104, UK320) in mid-log phase incubated with mAbs at 10 ug/ml; detected with FITC anti-human IgG; conditions: one partner purified

| Binder | Kd [1] | Kd [2] | Kd [3] | binding result [4] | Kd [5] | binding result [6] |
| --- | --- | --- | --- | --- | --- | --- |
| B1 | 2.2 nM | 0.551 nM | 2.6 nM |  |  |  |
| B2 | 0.24 nM | 0.0285 nM | 0.077 nM | binds |  |  |
| B3 | 0.68 nM | 0.0526 nM | 0.344 nM | binds |  |  |
| B4 | 0.633 nM | 0.029 nM | 0.328 nM | binds | 1.7 nM |  |
| B5 | 1.27 nM | 1.4 nM | 1.54 nM |  |  |  |
| B6 | 1.75 nM | 1.7 nM | 1.08 nM |  |  |  |
| B7 | 1.72 nM | 2.61 nM | 0.893 nM |  |  |  |
| B8 | 1.8 nM | 11.3 nM | 1.04 nM |  |  |  |
| B9 | 0.46 nM | 0.0525 nM | 0.34 nM |  |  |  |
| B10 | 1.67 nM |  | 0.296 nM |  |  |  |
| B11 | 1.75 nM | 2.75 nM | 1.01 nM |  |  |  |
| B12 | 2.03 nM | 1.7 nM | 1.08 nM |  |  | binds |
